Experimental data as given in patent US20030186281A1, “Modified tetracycline repressor protein compositions and methods of use” (priority 2001, published 2003).

Tested on: tet operator sequence
Experiment: β-galactosidase activity of a tetracycline-regulated promoter in transformed E. coli with revTetR, in the presence and absence of anhydrotetracycline (atc)
Format: cell-based, Escherichia coli
How it was run: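 TetR(BD) chimera mutants (TetR(B) residues 1–50, TetR(D) 51–208) expressed in E. coli regulating a tet operator-controlled lacZ. β-Galactosidase measured in Miller units at 28 °C and 37 °C with and without anhydrotetracycline; reported as percent of maximal expression without Tet repressor.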

B1: TetRrevAtc4-1: revTetR(BD) A50S D53F A56G V57I H63Q (protein)
chain: MSRLDKSKVINSALELLNEVGIEGLTTRKLAQKLGVEQPTLYWHVKNKRSLLFALGIEILARQHDYSLPAAGESWQSFLRNNAMSFRRALLRYRDGAKVHLGTRPDEKQYDTVETQLRFMTENGFSLRDGLYAISAVSHFTLGAVLEQQEHTAALTDRPAAPDENLPPLLREALQIMDSDDGEQAFLHGLESLIRGFEVQLTALLQIV
modifications: Modified tetracycline repressor
notes: revTetR(BD) A50S D53F A56G V57I H63Q
β-Galactosidase Activity, Cultured Without ATC (RevTetR isolate cultured in the absence of anhydrotetracycline (ATC)): 100.076 | β-Galactosidase Activity, Cultured With ATC (RevTetR isolate cultured in the presence of anhydrotetracycline (ATC)): 6.9011
